Values quoted from earlier work as cited in article PMC11578925.

Assays:
CD28 (Homo sapiens) = CD28 (Homo sapiens) (UniProt P10747)
PD-L1 (Homo sapiens) = PD-L1 (Homo sapiens) (UniProt Q9NZQ7)
Sequence of UniProt Q9NZQ7 (Q9NZQ7 19-238): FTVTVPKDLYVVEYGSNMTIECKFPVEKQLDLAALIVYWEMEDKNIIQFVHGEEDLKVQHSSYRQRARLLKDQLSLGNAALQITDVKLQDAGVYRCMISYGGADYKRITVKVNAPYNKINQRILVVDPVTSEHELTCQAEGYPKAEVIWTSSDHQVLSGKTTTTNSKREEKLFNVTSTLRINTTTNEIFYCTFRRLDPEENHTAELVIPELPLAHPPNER

Substance: CD80 (from UniProt P33681)
- Kd (CD28 (Homo sapiens)): 4000 nM
- Kd (PD-L1 (Homo sapiens)): 1700 nM
